This is an account of results in PMC10089660.

The nature of series [1]: intracellular paraoxonase activity, H1993-GR. The settings on record: glycan lost; control: PON1-WT.
The nature of a further series: OxiSelect ROS/RNS assay. The settings on record: glycan lost; control: PON1-WT.
The nature of series [2]: sandwich ELISA of IL-6, TNF-α, GM-CSF. The following applies: glycan lost; control: PON1-WT.
Series [3] can be described thus: SRB drug sensitivity assay. The following applies: glycan lost; control: PON1-WT.
A short description of series [4]: ATF6 ELISA of Golgi/ER fraction, immunofluorescence. The following applies: glycan lost; control: PON1-WT.
Series [5] is described as follows: trypsin sensitivity, PON1 ELISA, PON1-overexpressing cells Golgi/ER. The settings on record: glycan lost; control: PON1-WT.
A short description of series [6]: CHX chase, immunoblot, PON1 remaining, H1993-GR. The following applies: glycan lost; control: PON1-WT.
Series [7] can be described thus: ELISA of secretome PON1, H1993-GR. The settings on record: glycan lost; control: PON1-WT.
Series [8] can be described thus: trypsin sensitivity, PON1 ELISA, H1993-GR Golgi/ER fraction. The settings on record: glycan lost; control: PON1-WT.
The nature of series [9]: trypsin sensitivity, PON1 ELISA, A549 Golgi/ER fraction. The settings on record: glycan lost; control: PON1-WT.
A short description of series [10]: intracellular arylesterase activity, H1993-GR. The settings on record: glycan lost; control: PON1-WT.
Series [11] can be described thus: ELISA of secretome PON1, PNGase F in culture. The following applies: glycan lost; control: untreated.
Series [12] can be described thus: paraoxonase activity, H1993-GR Golgi/ER fraction. The following applies: glycan changed form; control: siControl.

B1: paraoxonase 1 (PON1): N253G (protein)
parent chain: MAKLIALTLLGMGLALFRNHQSSYQTRLNALREVQPVELPNCNLVKGIETGSEDLEILPNGLAFISSGLKYPGIKSFNPNSPGKILLMDLNEEDPTVLELGITGSKFDVSSFNPHGISTFTDEDNAMYLLVVNHPDAKSTVELFKFQEEEKSLLHLKTIRHKLLPNLNDIVAVGPEHFYGTNDHYFLDPYLQSWEMYLGLAWSYVVYYSPSEVRVVAEGFDFANGINISPDGKYVYIAELLAHKIHVYEKHANWTLTPLKSLDFNTLVDNISVDPETGDLWVGCHPNGMKIFFYDSENPPASEVLRIQNILTEEPKVTQVYAENGTVLQGSTVASVYKGKLLIGTVFHKALYCEL
As for B1, the enzymatic_activity entry in series [1] is listed as “no change”; in [10] it was “decreases”. Also, the “other: ROS/RNS in admixture secretome” value in the series “OxiSelect ROS/RNS assay” is given as “increases”. The “other: secretome cytokine levels” value in [2] is listed as “increases”. Moreover, in [3], the “other: EGFR-TKI resistance of GR and ER clones” value is on record as “decreases”. Moreover, the “other: ATF6 level in co-cultured DR clones” value in series [4] was “increases”. Besides, the stability_or_folding entry in series [5] is reported as “decreases”; in [8], “decreases”; in series [9], “no change”. In addition, the degradation_or_half_life result in series [6] is on record as “decreases”. The expression_or_secretion entry in series [7] was “decreases”.

B2: paraoxonase 1 (PON1): PNGase F (protein)
parent chain: MAKLIALTLLGMGLALFRNHQSSYQTRLNALREVQPVELPNCNLVKGIETGSEDLEILPNGLAFISSGLKYPGIKSFNPNSPGKILLMDLNEEDPTVLELGITGSKFDVSSFNPHGISTFTDEDNAMYLLVVNHPDAKSTVELFKFQEEEKSLLHLKTIRHKLLPNLNDIVAVGPEHFYGTNDHYFLDPYLQSWEMYLGLAWSYVVYYSPSEVRVVAEGFDFANGINISPDGKYVYIAELLAHKIHVYEKHANWTLTPLKSLDFNTLVDNISVDPETGDLWVGCHPNGMKIFFYDSENPPASEVLRIQNILTEEPKVTQVYAENGTVLQGSTVASVYKGKLLIGTVFHKALYCEL
For B2, the expression_or_secretion entry in series [11] is given as “no change”.

B3: paraoxonase 1 (PON1): N324G (protein)
parent chain: MAKLIALTLLGMGLALFRNHQSSYQTRLNALREVQPVELPNCNLVKGIETGSEDLEILPNGLAFISSGLKYPGIKSFNPNSPGKILLMDLNEEDPTVLELGITGSKFDVSSFNPHGISTFTDEDNAMYLLVVNHPDAKSTVELFKFQEEEKSLLHLKTIRHKLLPNLNDIVAVGPEHFYGTNDHYFLDPYLQSWEMYLGLAWSYVVYYSPSEVRVVAEGFDFANGINISPDGKYVYIAELLAHKIHVYEKHANWTLTPLKSLDFNTLVDNISVDPETGDLWVGCHPNGMKIFFYDSENPPASEVLRIQNILTEEPKVTQVYAENGTVLQGSTVASVYKGKLLIGTVFHKALYCEL
On to B3, for which the “other: EGFR-TKI resistance of GR and ER clones” value in series [3] is given as “decreases”. The expression_or_secretion result in series [7] is recorded as “decreases”. For the same protein, the stability_or_folding entry in series [8] is “decreases”.

B4: paraoxonase 1 (PON1): SLC35C1 RNAi (protein)
parent chain: MAKLIALTLLGMGLALFRNHQSSYQTRLNALREVQPVELPNCNLVKGIETGSEDLEILPNGLAFISSGLKYPGIKSFNPNSPGKILLMDLNEEDPTVLELGITGSKFDVSSFNPHGISTFTDEDNAMYLLVVNHPDAKSTVELFKFQEEEKSLLHLKTIRHKLLPNLNDIVAVGPEHFYGTNDHYFLDPYLQSWEMYLGLAWSYVVYYSPSEVRVVAEGFDFANGINISPDGKYVYIAELLAHKIHVYEKHANWTLTPLKSLDFNTLVDNISVDPETGDLWVGCHPNGMKIFFYDSENPPASEVLRIQNILTEEPKVTQVYAENGTVLQGSTVASVYKGKLLIGTVFHKALYCEL
As for B4, the enzymatic_activity result in series [12] is “no change”.
